Experimental findings from patent US20070178531A1 (BIOCHECK, published 2007) are described below.

Residue numbers refer to the chain shown, from its start.

The target in experiment [1] is T1, Human Id2: Histidine (human, UniProt Q02363 1-134, limits assumed).
T1 construct: Fusion protein made in E. coli from vector pGW07; also called h-Id2: His; not shown: His tag
T1 sequence (looked up): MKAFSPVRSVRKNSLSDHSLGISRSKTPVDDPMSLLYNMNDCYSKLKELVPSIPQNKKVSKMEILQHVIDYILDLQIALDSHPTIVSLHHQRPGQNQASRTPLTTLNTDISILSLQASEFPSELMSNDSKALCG
Nature of the experiment: ELISA, Ab 0.500 µg/ml. The protocol:
(§1) The rabbit monoclonal anti-human Id3 (clone #3-3) and the rabbit monoclonal anti-mouse/human Id3 (clones #6-1, 16-1, 17-3, and 42-1) produced in Example 6 were tested reactivity against the following antigens: mouse Id1:His, human Id1:His, mouse Id2:His, human Id2:His, mouse Id3:His, human Id3:His, mouse Id4:His, human Id4:His and GST.
(§2) 1. Microtiter wells (prepared in accordance with Example 6) were coated (0.1 μg/well) with mouse Id1:His, human Id1:His, human Id2:His, human Id3:His, and 1.0 μg/well with GST. [0155] 2. Antibody Diluent: 0.25% (w/v) BSA in 0.015M KPO₄ Buffer, 0.85% (w/v) NaCl, 0.1% (w/v) NaN₃, pH=7.40 [0156] 3. Rabbit monoclonal anti-human Id3 (clone #3-3) prepared in Example 7 was diluted to […] with the antibody diluent. […] 4. Rabbit monoclonal anti-mouse/human Id3 (clones #6-1, 16-1, 17-3, 42-1) prepared in Example 7 was diluted to 0.005, 0.010, 0.025, 0.05, 0.10, 0.25, and 0.50 μg/ml with the antibody diluent. […] 5. Conjugate Diluent: 50% (v/v) which consists of an aqueous solution containing Fetal Bovine Serum in 0.05 M Tris, 1% (v/v) Proclin-300, pH 7.6. [0159] 6. Conjugate: Goat anti-rabbit IgG (H+L)-HRP conjugate. [0160] 7. TMB reagent. […] 8. Stop solution (1 N HCI). Method
(§3) 1. Dispense 100 μL of antibody diluent, diluted rabbit monoclonal human Id3, and mouse/human Id3 hybridoma supernatants into appropriate wells. […] 2. Incubate at room temperature with mechanical shaking at 750 rpm for 90 minutes. [0165] 3. Remove the incubation mixture by flicking plate content into an appropriate waste container followed by rinsing the wells 5 times with distilled water. [0166] 4. Strike the wells sharply onto absorbent paper or paper towels to remove all residual water droplets. [0167] 5. Dispense 100 μL of 1:50,000 Goat Anti-Rabbit IgG-HRP Conjugate Reagent into each well. Gently mix for 5 seconds. [0168] 6. Incubate at room temperature with mechanical shaking at 750 rpm for 90 minutes. [0169] 7. Repeat procedures 3 and 4. [0170] 8. Dispense 100 μL of TMB Reagent into each well. Gently mix for 5 seconds. [0171] 9. Incubate at room temperature with mechanical shaking at 750 rpm for 20 minutes. […] 10.

Experiment [2] deals with T2, glutathione S-transferase (GST) (UniProt P08515 1-218 = GST).
T2 construct: also called carrier protein GST
Nature of the experiment: ELISA, Ab 0.500 µg/ml. The protocol: as §1, §2, §3

The target in experiment [3] is T3, Human Id1: Histidine (human, UniProt P41134 1-155, limits assumed).
T3 construct: Fusion protein made in E. coli from vector pGW07; also called h-Id1: his; not shown: His tag
T3 sequence (looked up): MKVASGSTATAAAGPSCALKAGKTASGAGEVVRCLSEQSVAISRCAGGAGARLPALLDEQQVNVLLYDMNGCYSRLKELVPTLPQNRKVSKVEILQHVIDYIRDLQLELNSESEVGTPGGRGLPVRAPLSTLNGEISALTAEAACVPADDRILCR
Kind of experiment: ELISA, Ab 0.500 µg/ml. The protocol:
as §1, §2, §3

In experiment [4] the target is T4, Mouse Id1: Histidine (mouse, UniProt P20067-2 1-148, limits assumed).
T4 construct: Fusion protein made in E. coli from vector pGW07; also called m-Id1-His; not shown: His tag
T4 sequence (looked up): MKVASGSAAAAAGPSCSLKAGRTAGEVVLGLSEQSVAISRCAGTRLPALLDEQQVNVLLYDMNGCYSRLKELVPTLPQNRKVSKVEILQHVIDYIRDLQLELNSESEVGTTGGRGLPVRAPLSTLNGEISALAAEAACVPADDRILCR
Kind of experiment: ELISA, Ab 0.500 µg/ml. The protocol:
as §1, §2, §3

The next experiment concerns the target T5, Mouse Id2: Histidine (mouse, UniProt P41136 1-134, limits assumed).
T5 construct: Fusion protein made in E. coli from vector pGW07; also called m-Id2: His; not shown: His tag
T5 sequence (looked up): T1 sequence (looked up) with S60T, A131V
Kind of experiment: ELISA, Ab 0.500 µg/ml. The protocol: as §1, §2, §3

Experiment [5] addresses T1, Human Id2: Histidine. Nature of the experiment: ELISA, Ab 0.010 µg/ml. The protocol: as §1, §2, §3
Experiment [6] addresses T3, Human Id1: Histidine. Nature of the experiment: ELISA, Ab 0.010 µg/ml. The protocol:
as §1, §2, §3

Experiment [7] concerns the target T4, Mouse Id1: Histidine. Nature of the experiment: ELISA, Ab 0.010 µg/ml. The protocol:
as §1, §2, §3

Experiment [8] addresses T1, Human Id2: Histidine. Kind of experiment: ELISA, Ab 0.250 µg/ml. The protocol: as §1, §2, §3
The next experiment concerns the target T6, Mouse Id3: Histidine (mouse, UniProt P41133 1-119).
T6 construct: Fusion protein made in E. coli from vector pGW07; also called m-Id3: His; Mouse Id3 (coated wells); not shown: His tag
T6 sequence: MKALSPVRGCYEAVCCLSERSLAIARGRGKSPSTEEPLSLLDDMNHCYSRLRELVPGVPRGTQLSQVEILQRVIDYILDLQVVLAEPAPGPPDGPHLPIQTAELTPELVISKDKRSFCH
Nature of the experiment: ELISA, Ab 0.500 µg/ml. The protocol:
as §1, §2, §3

For another experiment, the target named is T7, Human Id3: Histidine (human, UniProt Q02535 1-119 at identity 1.00)).
T7 construct: Fusion protein made in E. coli from vector pGW07; also called h-Id3: His; Human Id3 (coated wells); not shown: His tag
T7 chain: T6 sequence with S31G, S33A, T34A, T105A, K112N
Kind of experiment: ELISA, Ab 0.500 µg/ml. The protocol: as §1, §2, §3

T2 sequence (P08515 whole entry): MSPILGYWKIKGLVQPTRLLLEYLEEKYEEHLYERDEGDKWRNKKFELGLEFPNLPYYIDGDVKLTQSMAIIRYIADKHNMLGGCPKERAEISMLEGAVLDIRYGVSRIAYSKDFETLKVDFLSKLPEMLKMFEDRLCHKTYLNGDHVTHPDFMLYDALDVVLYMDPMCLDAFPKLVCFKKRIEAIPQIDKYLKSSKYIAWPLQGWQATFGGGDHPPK

B1: rabbit monoclonal anti-human Id3, clone #BCH-4/#3-3 (antibody, V domains shown)
VH: QSVEESGGRLVTPGTPLTLTCTVSGIDLSSYAMSWVRQAPGKGLEWIGVIFPSNNVYYASWAKGRFTISKTSTTVDLKITSPTTEDTATYFCASMGAFDSWGPGTLVTVSS
VL: QVLTQTPSPVSAAVGGTVTINCQASQSIYNDNDLAWFQQKPGQPPKLLIYDASTLTSGVPSRFKGSGSGTQFTLTISDLDCDDAATYYCAARYSGNIYGFGGGTEVVVK
notes: Rabbit IgG from a rabbit hybridoma; also called h Id3 MoAb 3-3
Consider B1, for which the A450 with Human Id2: Histidine [1] amounted to 0.047 A450; in [2] it was 0.05 A450; in the experiment with Human Id1: Histidine [3], 0.048 A450; with Mouse Id1: Histidine [4], 0.05 A450; with Mouse Id2: Histidine, 0.05 A450; with Human Id2: Histidine [5], 0.043 A450. The A450 with Human Id1: Histidine [6] worked out at 0.046 A450; with Mouse Id1: Histidine [7], 0.047 A450; in the experiment with Human Id2: Histidine [8] it was 0.054 A450.

B2: rabbit monoclonal anti-mouse/human Id3, clone #BCH-4/#16-1 (antibody, V domains shown)
VH: QSVEESGGRLVTPGTPLTLTCTASGFSLSSYYIHWVRQAPGKALEWIGYISDGGTTYYASWAKGRFTISKTSSTTVDLKMTSLTTEDTATYFCARQGFNIWGPGTLVTVSL
VL: AVLTQTPSPVSAAVGGTVTISCQSSQSVYNNNWLSWFQQKSGQPPKLLIYETSKLESGVPSRFKGSGSGTQFTLTIIDVQCDDAATYYCLGGYWTTSDNNIFGGGTEVVVK
notes: Rabbit IgG from a rabbit hybridoma; also called m/h Id3 MoAb 16-1
As for B2, the A450 turned out to be 3.61 A450 with Mouse Id3: Histidine; 0.058 A450 with Human Id2: Histidine [1]; 0.053 A450 in experiment [2]; 0.051 A450 with Human Id1: Histidine [3]; 3.37 A450 in the experiment with Human Id3: Histidine; 0.047 A450 with Mouse Id1: Histidine [4]. In addition, the A450 in the experiment with Mouse Id2: Histidine came out at 0.067 A450; with Human Id2: Histidine [5], 0.044 A450; with Human Id1: Histidine [6] it was 0.042 A450; with Mouse Id1: Histidine [7], 0.05 A450; with Human Id2: Histidine [8] it was 0.052 A450.

B3: rabbit monoclonal anti-mouse/human Id3, clone #BCH-4/#6-1 (antibody, V domains shown)
VH: B2 VH with S30N, Y31V, A43G, G54D, T56A, Y57R, S60T, D77N
VL: B2 VL with T19S, Y29W, S41P, I77S, I101V
notes: Rabbit IgG from a rabbit hybridoma; also called m/h Id3 MoAb 6-1
With B3, the A450 worked out at 3.81 A450 with Mouse Id3: Histidine; 0.063 A450 in the experiment with Human Id2: Histidine [1]; 0.054 A450 in [2]; 0.048 A450 with Human Id1: Histidine [3]; 3.56 A450 with Human Id3: Histidine; 0.051 A450 with Mouse Id1: Histidine [4]. Further, the A450 is 0.066 A450 in the experiment with Mouse Id2: Histidine; 0.044 A450 in the experiment with Human Id2: Histidine [5]; 0.049 A450 with Human Id1: Histidine [6]; 0.044 A450 in the experiment with Mouse Id1: Histidine [7]; 0.056 A450 with Human Id2: Histidine [8].

B4: rabbit monoclonal anti-mouse/human Id3, clone #BCH-4/#17-3 (antibody, V domains shown)
VH: B2 VH with S30N, Y31V, A43G, G54D, T56A, Y57R, S60T, D77N
VL: B2 VL with T19S, Y29W, S41P, I77S, I101V
notes: Rabbit IgG from a rabbit hybridoma; also called m/h Id3 MoAb 17-3; BCH-3/#17-3
For the molecule B4, the A450 with Mouse Id3: Histidine amounted to 3.74 A450; in the experiment with Human Id2: Histidine [1], 0.053 A450; in [2], 0.053 A450; with Human Id1: Histidine [3], 0.049 A450; with Human Id3: Histidine, 3.69 A450; with Mouse Id1: Histidine [4], 0.06 A450. The A450 stood at 0.069 A450 with Mouse Id2: Histidine; 0.043 A450 with Human Id2: Histidine [5]; 0.046 A450 with Human Id1: Histidine [6]; 0.047 A450 with Mouse Id1: Histidine [7]; 0.054 A450 with Human Id2: Histidine [8].

B5: rabbit monoclonal anti-mouse/human Id3, clone #BCH-4/#42-1 (antibody, V domains shown)
VH: B2 VH
VL: B2 VL with T95S
notes: Rabbit IgG from a rabbit hybridoma; also called m/h Id3 MoAb 42-1
For the molecule B5, the A450 with Mouse Id3: Histidine is 3.63 A450; in the experiment with Human Id2: Histidine [1], 0.057 A450; in [2], 0.049 A450; in the experiment with Human Id1: Histidine [3], 0.047 A450; in the experiment with Human Id3: Histidine, 3.75 A450; in the experiment with Mouse Id1: Histidine [4], 0.053 A450. In addition, the A450 with Mouse Id2: Histidine is 0.075 A450; with Human Id2: Histidine [5], 0.046 A450; with Human Id1: Histidine [6], 0.045 A450; in the experiment with Mouse Id1: Histidine [7] it was 0.043 A450; with Human Id2: Histidine [8] it was 0.051 A450.
